Patent US20110288485A1, “MICRONEEDLE DEVICE” (HISAMITSU PHARMACEUTICAL CO., INC., priority 2008, published 2011)

Legend:
[1] = In vitro human skin penetration test by microneedles (parathyroid hormone); assay type: in vitro ADME; conditions: microneedles height 500 μm compared with 300 μm; 40 μg hPTH coated; attachment six hours
Text: (§1) Two types of microneedles made of a polylactic acid that differ in the length of the needle part (h: 300 μm and 500 μm) were used. The shape of either of these two types of microneedles was square pyramid, and the density of the microneedle was 400 needles/cm^2. Also, the area of either one of microneedle devices was 1 cm^2.
A coating liquid prepared according to the below-described technique (30% human parathyroid hormone hPTH (1-34) (the product of Sichuan Unibiochem Co., Ltd.), 7.5% pullulan, and 0.1% Tween 20) was coated on a microneedle device similarly to Example 1, and after piercing excised human skin with this microneedle device by finger pressing (2 kg/patch), the device and the skin were placed on an acrylic cell for sampling over time. As a receptor layer, physiological saline containing 0.01% benzalkonium chloride was used, and 1 mL of a receptor liquid collected per sampling time was measured by a gamma counter to calculate a PTH concentration. It is to be noted that a period of attachment of the microneedle device was set at six hours. The results of the sampling are as shown in the graph in FIG. 5.
(2) After coating microneedles with the coating solution prepared in (1), radiation of each pharmaceutical preparation was counted using a NaI counter to estimate the content of PTH coated on the needle part. […]

[2] = PTH/pullulan coating liquid: solubility evaluation and amount of PTH coated on microneedles (Example 9); assay type: physicochemical; conditions: 30% or 40% PTH solution with small amount of surfactant (Tween 20)
Method: In order to optimize a ratio between PTH (1-34) (the product of Sichuan Unibiochem Co., Ltd.) and a coating carrier, which is a water-soluble high molecular weight polymer, a study was conducted using PTH and a coating carrier (pullulan). […] The concentration of pullulan was adjusted based on the viscosity of the solution at the time of dissolving, and the range of the concentration of pullulan was set to 0 to 30% (w/w). It is to be noted that, as the pullulan, one recited in Japanese Pharmacopeia (the product of Hayashibara Biochemical Labs., Inc.) was used. Further, in order to increase the adhesiveness to the needles, a study was also conducted for the case in which a surfactant (Tween20, 0.1%) was added as shown in Table 7.
Evaluation of solubility of PTH was performed after adjusting each solution, and a coating liquid capable of adjusting a uniform solution was subjected to an operation for coating of microneedles made of a polylactic acid. Following the aforementioned method as a coating method, coating was performed only on the tip part of the needles with the use of a metal mask (only the needle part was coated using a metal mask having a diameter of the aperture: 220 μm and thickness: 100 μm).

[3] = Study on the addition amount of sucrose to PTH, stability of content (Example 7); assay type: physicochemical
Method: (§2) A medicinal unit sample for screening of a stabilizing agent was fully dried and enclosed in an aluminum packing material, sandwiched between silicon treated liners, with OZO (OZO kagakugiken Co., Ltd.). It was then stored at 25° C., 40° C., 50° C., and 60° C. to perform an acceleration test to conduct a stability test of the content over time (n=3). The content was returned to room temperature, and then extracted with 4 mL of an extraction liquid, followed by measurement by HPLC.
Other than this, the study was conducted in the same manner as the aforementioned Examples.

[4] = Hairless rat in vivo absorption test by microneedles (parathyroid hormone)
Text: as §1
Firstly, the abdomen of a hairless rat was pierced with a microneedle device in which tips of the needles were coated with a similar coating liquid to Example 2 (30% human parathyroid hormone hPTH (1-34) (the product of Sichuan Unibiochem Co., Ltd.), 7.5% pullulan, and 0.1% Tween 20) by a similar technique to Example 1 by hand pushing, and the microneedle device was covered with a foam tape (the product of 3M Company) and left attached for six hours. Then, blood was collected over time (amount of blood collected 200 μL/times) to measure the serum hPTH concentration with a Rat PTH IRMA kit (the product of Immutopics International). Also, in a subcutaneous administration group, 0.2 mg/mL hPTH in physiological saline was prepared, 40 μL of which was subcutaneously administered to the back of a hairless rat, and the PTH concentration was similarly measured.

[5] = PTH storage method: acceleration stability test of the content, form of package and stabilizing agent (Example 6); assay type: physicochemical
Method: PTH was prepared at 40 mg/mL with water for injection, which was then dispensed to serve as a drug solution. It was further diluted to 20 mg/mL with water for injection before experiment, 20 μL of which was added dropwise to a microneedle base (400 μg/patch), which served as a medicinal unit.
as §2
Extraction liquid: a 0.01% benzalkonium chloride solution or 2% TMTDAB, 1% sodium chloride, and 10 mM acetic acid buffer
Detector: an ultraviolet absorptiometer (measurement wavelength: 220 nm)
Column temperature: 25° C.

[6] = Study on drying time of a sucrose additive to PTH, stability of content (Example 8); assay type: physicochemical; conditions: 60° C.
Method: as §2
Using this solution, a drug solution unit was produced, and preservation qualities resulting from various drying times were examined under a nitrogen stream.

In the case of human parathyroid hormone hPTH (1-34), the skin penetration property [1] is reported as “efficient drug delivery is made possible”, the “amount of PTH attached by single coating operation” value [2] is reported as ≥ 20 µg and the “residual ratio (%) relative to the initial value” ([3]; 40° C., 1W) is reported as 83.26 ± 0.57%. For the same substance, the “residual ratio (%) relative to the initial value” ([3]; 40° C., 4W) was 92.82 ± 0.74%, the “residual ratio (%) relative to the initial value” ([3]; 50° C., 4W) was 80.83 ± 4.57% and the “residual ratio (%) relative to the initial value” ([3]; 60° C., 4W) was 76.55 ± 3.95%. The “initial rise in the blood concentration, reaching maximum blood concentration” value ([4]; microneedle device vs subcutaneous administration) was “more rapidly reached than subcutaneous administration”, the “amount of absorption (serum hPTH)” value ([4]; microneedle length 300 and 500 μm, attached six hours) was “increases in the amount of absorption dependent on the length of the microneedles” and the “residual ratio (%) relative to the initial value” ([5]; 40° C., 1W) was 100.22 ± 0.53%. For the same substance, the “residual ratio (%) relative to the initial value” ([5]; 40° C., 2W) was 97.64 ± 0.72%, the “residual ratio (%) relative to the initial value” ([5]; 40° C., 4W) was 97.02 ± 0.65% and the “residual ratio (%) relative to the initial value” ([5]; 50° C., 1W) was 94.65 ± 1.55%. The “residual ratio (%) relative to the initial value” ([5]; 50° C., 2W) was 94.10 ± 2.25%, the “residual ratio (%) relative to the initial value” ([5]; 50° C., 4W) was 84.26 ± 1.19% and the “residual ratio (%) relative to the initial value” ([5]; 60° C., 1W) was 89.50 ± 1.11%. For the same substance, the “residual ratio (%) relative to the initial value” ([5]; 60° C., 2W) was 88.22 ± 0.82%, the “residual ratio (%) relative to the initial value” ([5]; 60° C., 4W) was 71.80 ± 1.94% and the “residual ratio (%) relative to the initial value” ([6]; drying time 15 minutes, 1W) was 85.35 ± 0.64%. The “residual ratio (%) relative to the initial value” ([6]; drying time 15 minutes, 4W) was 75.43 ± 1.69%, the “residual ratio (%) relative to the initial value” ([6]; drying time 30 minutes, 1W) was 85.53 ± 0.49% and the “residual ratio (%) relative to the initial value” ([6]; drying time 30 minutes, 4W) was 73.10 ± 0.36%. For the same substance, the “residual ratio (%) relative to the initial value” ([6]; drying time 1 hour, 1W) was 84.62 ± 0.72%, the “residual ratio (%) relative to the initial value” ([6]; drying time 1 hour, 4W) was 75.56 ± 1.69% and the “residual ratio (%) relative to the initial value” ([6]; drying time 2 hours, 1W) was 86.01 ± 1.07%. The “residual ratio (%) relative to the initial value” ([6]; drying time 2 hours, 4W) was 73.93 ± 1.41%, the “residual ratio (%) relative to the initial value” ([6]; drying time 16 hours, 1W) was 87.08 ± 0.72% and the “residual ratio (%) relative to the initial value” ([6]; drying time 16 hours, 4W) was 72.71 ± 2.01%.
